The target of experiment [1] is T1, human Siglec15-mouse Fc protein (human).
T1 construct: In house made
T1 chain: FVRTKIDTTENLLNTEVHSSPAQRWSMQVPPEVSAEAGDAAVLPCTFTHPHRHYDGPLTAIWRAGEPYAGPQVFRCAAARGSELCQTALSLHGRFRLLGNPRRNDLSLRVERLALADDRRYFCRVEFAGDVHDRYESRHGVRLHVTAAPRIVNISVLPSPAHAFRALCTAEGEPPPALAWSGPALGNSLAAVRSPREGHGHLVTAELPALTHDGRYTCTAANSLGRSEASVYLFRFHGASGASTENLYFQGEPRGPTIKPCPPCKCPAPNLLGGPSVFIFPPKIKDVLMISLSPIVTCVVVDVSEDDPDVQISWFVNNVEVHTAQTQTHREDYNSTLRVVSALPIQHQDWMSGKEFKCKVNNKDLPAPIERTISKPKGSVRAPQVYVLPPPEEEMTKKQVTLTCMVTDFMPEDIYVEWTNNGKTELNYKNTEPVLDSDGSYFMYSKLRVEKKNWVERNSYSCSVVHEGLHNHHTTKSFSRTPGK
The experiment in a line: cell based blocking FACS: human Siglec15-mouse Fc in solution, blocked ligand human LRRC4C on LRRC4C-3F12-1B9 cells. The procedure:
The activities of the anti-Siglec15 antibodies to block binding of Siglec15 protein to cell surface LRRC4C were evaluated by Flow Cytometry (FACS), using in house made LRRC4C-3F12-1B9 cells. Briefly, HEK-293 cells (ATCC #CRL-1573) were transfected with pCMV-T-P plasmid constructs with the nucleotide sequence encoding human LRRC4C (amino acid residues Met1-Ile640 of uniprot #Q9HCJ2) inserted between EcoRI and XbaI, following the instruction of lipofectamine 3000 transfection reagent (Thermo Fisher). A stable cell named LRRC4C-3F12-1B9 was chosen for subsequent cell based ligand-blocking assay.
Briefly, the anti-Siglec15 antibodies of the disclosure or controls were diluted with human Siglec15-mouse Fc protein (prepared in-house with SEQ ID NO: 26, 8 μg/ml […] in FACS buffer), starting at 66.67 nM with a 5-fold serial dilution, and incubated at room temperature for 40 minutes. Then, LRRC4C-3F12-1B9 cells were harvested from cell culture flasks, washed twice and re-suspended in PBS containing 2% v/v Fetal Bovine Serum (FACS buffer). Then, 1×10⁵ cells per well in 96 well-plates were incubated in 100 μL of the antibody/Siglec15-mouse Fc mixtures for 40 minutes at 4° C. […] Cells were washed twice and re-suspended in FACS buffer. Fluorescence was measured using a Becton Dickinson FACS Canto II-HTS equipment. Data was analyzed using Graphpad Prism software and IC₅₀ values were reported.

The target of experiment [2] is T2, human Siglec15 on human-siglec15-2D3-1E1 cells (human, UniProt Q6ZMC9 20-328).
T2 construct: whole, on cells; Transfected HEK-293 cells; also called cell surface human Siglec15
T2 sequence (looked up): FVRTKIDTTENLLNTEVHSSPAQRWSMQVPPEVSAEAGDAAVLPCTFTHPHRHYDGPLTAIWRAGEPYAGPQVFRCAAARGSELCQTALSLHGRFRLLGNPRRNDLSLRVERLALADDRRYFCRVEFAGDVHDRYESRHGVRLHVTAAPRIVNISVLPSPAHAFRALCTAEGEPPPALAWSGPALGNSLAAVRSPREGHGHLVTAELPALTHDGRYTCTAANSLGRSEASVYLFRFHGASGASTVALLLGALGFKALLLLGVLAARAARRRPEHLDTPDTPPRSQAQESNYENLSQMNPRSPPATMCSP
The experiment in a line: cell based binding FACS on human-siglec15-2D3-1E1 cells. As for the experimental part: The binding activities of the anti-Siglec15 antibodies to cell surface Siglec15 were tested by flow cytometry (FACS), using in-house prepared human-siglec15-2D3-1E1 cells expressing human Siglec15 (amino acid residues Met1-Pro328 of uniprot #Q6ZMC9) on cell membranes. The human-siglec15-2D3-1E1 cells were prepared by transfecting HEK-293 cells (ATCC #CRL-1573) with pCMV-T-P plasmids inserted with human Siglec15 coding sequence between EcoRI and XbaI sites, following the instruction of lipofectamine 3000 transfection reagent (Thermo Fisher). The human-siglec15-2D3-1E1 cells were harvested from cell culture flasks, washed twice and re-suspended in phosphate buffered saline (PBS) containing 2% v/v Fetal Bovine Serum (FACS buffer). 2×10⁵ cells per well in 96 well-plates were incubated in 100 μL serially diluted anti-Siglec15 antibodies or controls (starting at 66.67 nM, 5-fold serial dilution) in FACS buffer for 40 minutes on ice. […] Following a 40-minute incubation at 4° C. in dark, cells were washed three times and re-suspended in FACS buffer. Fluorescence was measured using a Becton Dickinson FACS Canto II-HTS equipment. Data was analyzed using Graphpad Prism software and EC₅₀ values were reported.

The target in experiment [3] is T3, mouse Siglec15-his protein (mouse).
T3 construct: In house made
T3 chain: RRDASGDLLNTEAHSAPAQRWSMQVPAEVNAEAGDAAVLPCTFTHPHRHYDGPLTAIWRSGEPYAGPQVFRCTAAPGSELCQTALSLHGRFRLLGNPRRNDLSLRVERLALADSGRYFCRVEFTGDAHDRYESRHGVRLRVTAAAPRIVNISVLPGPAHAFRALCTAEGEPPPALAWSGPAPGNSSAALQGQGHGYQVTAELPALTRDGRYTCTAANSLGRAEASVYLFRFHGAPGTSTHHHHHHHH
The experiment in a line: SPR Biacore T200, antibody captured by anti-mouse IgG, antigen as analyte, 1:1 fit. The procedure: Briefly, goat anti-mouse IgG (GE healthcare, Cat #BR100838, Mouse Antibody Capture Kit) was covalently linked to a CM5 chip (carboxy methyl dextran coated chip from GE healthcare, Cat #BR100530) via primary amines using a standard amine coupling kit (GE healthcare, Pittsburgh, Pa., USA) provided by Biacore. Un-reacted moieties on the biosensor surface were blocked with ethanolamine. The purified mouse anti-Siglec15 antibodies of the disclosure at the concentration of 13.3 nM, were respectively flowed onto the chip at a flow rate of 10 μL/min. Then, serially diluted human Siglec15-his protein (in house made, amino acid sequence set forth in SEQ ID NO: 20), cynomolgus monkey Siglec15-his protein (in house made, amino acid sequence set forth in SEQ ID NO: 21), or mouse Siglec15-his protein (in house made, amino acid sequence set forth in SEQ ID NO: 22), 2-fold dilution in HBS-EP⁺ buffer (provided by Biacore) starting at 80 nM, were flowed onto the chip at a flow rate of 30 μL/min. The antigen-antibody association kinetics was followed for 2 minutes and the dissociation kinetics was followed for 10 minutes. The association and dissociation curves were fit to a 1:1 Langmuir binding model using BIAcore evaluation software.
In general terms: In SPR one partner is held on a chip, and binding of the other changes the refractive index at the surface.

B1: A2A5C7E8 (antibody, V domains shown)
VH: EVQLVQSGAEVKKPGESLRISCKGSGYSFTTYWISWVRQMPGKGLEWMGLIDPSDSYTNYSPSFQGHVTISTDKSISTAYLQWSSLKASDTAMYYCARGGYYGSEEDYWGQGTLVTVSS
VL: EIVLTQSPGTLSLSPGERATLSCRASQSVSSSRLAWFQQKSGQAPRLLIFDASSRATGIPDRFSGSGSGTDFTLTISRLEPEDFAVYYCQQYGSSPRTFGQGTKVEFK
notes: Fully human antibody from transgenic mouse hybridoma; also called A2A5C7E8-1
B1: in experiment [1], half-maximal inhibition (IC50) was put at 2070 pM. The response in experiment [2] was half-maximal at 1170 pM (EC50).

B2: A2A5C7E8-2 (antibody, human IgG1, kappa, V domains shown)
VH: EVQLVQSGAEVKKPGESLRISCKGSGYSFTTYWISWVRQMPGKGLEWMGLIDPSESYTNYSPSFQGHVTISTDKSISTAYLQWSSLKASDTAMYYCARGGYYGSEEDYWGQGTLVTVSS
VL: EIVLTQSPGTLSLSPGERATLSCRASQSVSSSRLAWFQQKSGQAPRLLIFDASSRATGIPDRFSGSGSGTDFTLTISRLEPEDFAVYYCQQYGSSPRTFGQGTKVEFKR
notes: Variant of A2A5C7E8 modified in VH CDR2 (X1 = E)
As for B2, the EC50 in experiment [2] stood at 1470 pM.

B3: A2A5C7E8-3 (antibody, human IgG1, kappa, V domains shown)
VH: EVQLVQSGAEVKKPGESLRISCKGSGYSFTTYWISWVRQMPGKGLEWMGLIDPSDSYTNYSPSFKGHVTISTDKSISTAYLQWSSLKASDTAMYYCARGGYYGSEEDYWGQGTLVTVSS
VL: EIVLTQSPGTLSLSPGERATLSCRASQSVSSSRLAWFQQKSGQAPRLLIFDASSRATGIPDRFSGSGSGTDFTLTISRLEPEDFAVYYCQQYGSSPRTFGQGTKVEFKR
notes: Variant of A2A5C7E8 modified in VH CDR2 (X2 = K)
Regarding B3, the concentration giving a half-maximal response (EC50) in experiment [2] was determined as 1080 pM.

B4: B2D7H7A3C1 (antibody, V domains shown)
VH: QVQLQQSGAELVRPGTSVQMSCKAAGYTFTNYWIGWVKQRPGHGLEWVGDIHPGINYTNNNEKFRGKATLTADTSSNTAYMQLRGLTSDDSAIYYCARVDYDYDGSYIMDYWGQGTSVTVSS
VL: QIVLSQSPALLSASPGEKVTMTCRASSSVSYMYWYQQKPGSSPKPWIYATSNLTSGVPARFSGSGSGTSYSLTISRVEAEDAATYFCQQWNSKPWTFGGGSKLEIR
notes: Mouse monoclonal antibody from hybridoma; also called mouse B2D7H7A3C1
In experiment [3], B4 had a Kd of 337 pM, an off-rate constant (koff) of 0.00445 s⁻¹ and an association rate constant (kon) of 1.32e+07 M⁻¹ s⁻¹.

B5: B2G12H3E8 (antibody, V domains shown)
VH: QVQLKQSGAELVRPGTSVQMSCKAVGYTFTNYWIGWVKQRPGHGLEWVGDIHPGINYTNNNEKFRGKATLTADTSSSTAYMQLRGLTSDDSAIYYCARVDYDYDGSYIMDYWGQGTSVTVSS
VL: QIVLSQSPALLSASPGEKVTMTCRASSSVSYMYWYQQKPGSSPKPWIYATSNLTSGVPARFSGSGSGTSYSLTISRVEAEDAATYFCQQWNSKPWTFGGGSKLEIR
notes: Mouse monoclonal antibody from hybridoma; also called mouse B2G12H3E8
In experiment [3], B5 came in with a Kd of 423 pM, a koff of 0.0108 s⁻¹ and a kon of 2.55e+07 M⁻¹ s⁻¹.

B6: B2H2H1H7 (antibody, V domains shown)
VH: QVQLQQSGAELVRPGTSVQMSCKAAGYTFTNYWIGWVKQRPGHGLEWVGDIHPGINYTNNNEKFRGKATLTADTSSSTAYMQLRGLTSDDSAIYYCARVDYDYDGSYIMDYWGQGTSVTVSS
VL: QIILSQSPALLSASPGEKVTMTCRASSSVSYMYWYQQKPGSSPKPWIYATSNLTSGVPARFSGSGSGTSYSLTISRVEAEDAATYFCQQWNSKPWTFGGGSRLEIR
notes: Mouse monoclonal antibody from hybridoma; also called mouse B2H2H1H7; B2H2H1A7
As to B6, in experiment [3], binding was put at a Kd of 390 pM, the koff is 0.00737 s⁻¹ and the kon is 1.89e+07 M⁻¹ s⁻¹.

B7: anti-Siglec15 benchmark (ch5G12) (antibody, human IgG1, kappa, V domains shown)
VH: QVQLQQPGAELVKPGASVKMSCKASGYTFTSYWITWVIQRPGQGLEWIGDIYCGSDTMHYNEKFKNKATLTVDTSSSTAYMQLSSLTSEDSAVYYCARWWDYGSSYDYFDYWGQGTTLTVSS
VL: DIKMTQSPSSMYASLGERVTITCKASQDINSYLSWFQQKPGKSPKTLIYRANRLVDGVPSRFSGSGSGQDYSLTISSLEYEDMGIYYCLQYDEFPYTFGGGTKLEIKR
notes: ch5G12 (US 20190202912A1); also called BM; Siglec15-ch5G9
As for B7, the midpoint of inhibition in experiment [1], the IC50, lay at 586 pM. Further, in experiment [2], a half-maximal effect (EC50) was put at 877 pM.

B8: A1E10G7H9 (antibody, V domains shown)
VH: QVQLQESGPGLVKPSGTLSLTCAVSGGSISSSNWWHWVRQPPGKGLEWIGEIYHSGNTNYKPSLKSRVTISVDKSKNQFSLKLSSVTAADTAVYYCARDEGNGWSNAFDIWGQGTMVTVSS
VL: ENVLTQSPGTLSLSPGERVTLSCRASQSVSSSYLAWYQQKPGQAPRFLIYGASGGATGIPDRFSGSGSGTDFTLTISRLEPEDFAVYYCQQYGSSPITFGQGTRLEIK
notes: Fully human antibody from transgenic mouse hybridoma
With B8, the half-inhibitory concentration (IC50) in experiment [1] was found to be 3780 pM.

One may read the IC50 as the concentration that gives 50% inhibition. Read a high IC50 as weaker potency. The EC50 is the concentration that produces a half-maximal response. One may read the Kd as the equilibrium constant for the complex coming apart. Higher therefore signals weaker binding. One may read the koff as a measure of how fast the partners let go of each other. Higher therefore signals fast dissociation. A word on the kon: it is the rate constant with which the complex forms. Read a high kon as faster complex formation.

Source of the values: US20230106715A1 (BIOSION, published 2023).
